Experimental data published in publication PMC5560099.

Tested on: O=C(Cc1cccs1)N[C@@H]1C(=O)N2C(C(=O)O)=C(/C=C/c3ccc([N+](=O)[O-])cc3[N+](=O)[O-])CS[C@H]12
Assay: steady-state hydrolysis kinetics with purified PenA
Type: biochemical, Burkholderia multivorans

In the case of “PenA β-lactamase (Burkholderia multivorans ATCC 17616)”, the Km is reported as 147 ± 15 µM and the kcat/Km is reported as 3.2e+06 ± 300000 M⁻¹ s⁻¹.
